Assay results reported in patent US20090291879A1 (published 2009).
Each block holds one binder with its values, some of them ahead of it.

What was measured:
[1] = target: T1, Integrin α2β1 on human chondrosarcoma cells (K9, K105) (human, UniProt P17301 30-1181; P05556 21-798); test: adhesion of K9 cells to coated protein, 1 hour, N-acetylglucosaminidase read-out; receptor as attributed in paragraph 181
T1 construct: whole, on cells; The cells are not engineered; also called integrin α2β1 receptor; β1 integrin
Procedure: To test cell binding, the chondrosarcoma cells or bovine chondrocytes were suspended in PBS containing 0.1% BSA, 25 U/ml collagenase and added to the wells (50,000/well), in the absence or presence of various peptide pools or the synthetic peptides (200, 100, 50, 25, 12.5 μg/ml). Non-adherent cells were removed after 1 hour and adhesion was determined by measuring lysosomal N-acetylglucosaminidase (12). Adhesion and spreading was visualized by light microscopy. In the time studies, k105 cells were allowed to adhere for 30 minutes, unbound cells were removed and medium without serum supplemented with or without peptides (250 μg/ml), β1 integrin antibody (clone P4C10, Gibco BRL), EDTA (5 mM) was added. Cell morphology was visualized by light microscopy after 1, 3 and 20 hours.
48-well tissue culture dishes were coated with 5 μg/ml collagen type II, tissue extracted bovine chondroadherin, human chondroadherin expressed in EBNA cells and human chondroadherin expressed in E. coli and blocked for non-specific binding with BSA. The cells were allowed to adhere for 1 hour at 37° C. Nonadherent cells were removed by washing and adhesion was determined by analyzing lysosomal N-acetylglucosaminidase. Adhesion is expressed in number of cells, 50,000 cells/well were seeded.

[2] = target: T1, Integrin α2β1 on human chondrosarcoma …; test: adhesion of k105 cells to coated peptide, light microscopy; receptor as attributed in paragraph 163 and paragraph 181

T1 sequence (P17301 30-1181, chain 1 of 2): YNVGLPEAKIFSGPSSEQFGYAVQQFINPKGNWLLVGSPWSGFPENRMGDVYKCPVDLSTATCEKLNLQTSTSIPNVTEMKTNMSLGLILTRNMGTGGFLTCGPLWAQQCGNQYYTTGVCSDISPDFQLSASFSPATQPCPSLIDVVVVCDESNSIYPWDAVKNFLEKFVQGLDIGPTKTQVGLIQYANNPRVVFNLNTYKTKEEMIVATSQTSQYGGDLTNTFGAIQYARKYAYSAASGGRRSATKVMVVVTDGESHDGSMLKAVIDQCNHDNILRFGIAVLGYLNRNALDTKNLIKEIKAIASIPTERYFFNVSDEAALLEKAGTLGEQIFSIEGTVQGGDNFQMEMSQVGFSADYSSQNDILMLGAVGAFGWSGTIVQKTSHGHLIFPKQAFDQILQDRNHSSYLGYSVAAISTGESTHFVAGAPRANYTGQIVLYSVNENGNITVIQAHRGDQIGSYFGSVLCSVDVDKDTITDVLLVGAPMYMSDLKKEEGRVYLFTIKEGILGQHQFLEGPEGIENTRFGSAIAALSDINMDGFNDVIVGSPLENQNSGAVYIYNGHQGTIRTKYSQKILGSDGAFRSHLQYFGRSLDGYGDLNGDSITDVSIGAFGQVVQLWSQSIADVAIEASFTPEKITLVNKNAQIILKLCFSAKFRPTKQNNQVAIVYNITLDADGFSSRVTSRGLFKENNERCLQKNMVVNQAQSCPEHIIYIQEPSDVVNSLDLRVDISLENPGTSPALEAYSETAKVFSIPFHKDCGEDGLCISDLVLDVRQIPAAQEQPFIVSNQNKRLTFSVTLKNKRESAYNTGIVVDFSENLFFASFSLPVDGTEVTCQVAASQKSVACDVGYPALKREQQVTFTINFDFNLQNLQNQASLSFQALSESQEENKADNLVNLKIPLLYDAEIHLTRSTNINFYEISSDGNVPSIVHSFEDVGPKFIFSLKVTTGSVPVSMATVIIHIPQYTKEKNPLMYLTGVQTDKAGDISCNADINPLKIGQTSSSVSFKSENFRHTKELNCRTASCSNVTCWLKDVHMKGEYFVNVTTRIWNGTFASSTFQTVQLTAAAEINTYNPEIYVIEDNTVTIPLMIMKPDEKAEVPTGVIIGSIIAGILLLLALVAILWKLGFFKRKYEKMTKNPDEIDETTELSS
T1 sequence (P05556 21-798, chain 2 of 2): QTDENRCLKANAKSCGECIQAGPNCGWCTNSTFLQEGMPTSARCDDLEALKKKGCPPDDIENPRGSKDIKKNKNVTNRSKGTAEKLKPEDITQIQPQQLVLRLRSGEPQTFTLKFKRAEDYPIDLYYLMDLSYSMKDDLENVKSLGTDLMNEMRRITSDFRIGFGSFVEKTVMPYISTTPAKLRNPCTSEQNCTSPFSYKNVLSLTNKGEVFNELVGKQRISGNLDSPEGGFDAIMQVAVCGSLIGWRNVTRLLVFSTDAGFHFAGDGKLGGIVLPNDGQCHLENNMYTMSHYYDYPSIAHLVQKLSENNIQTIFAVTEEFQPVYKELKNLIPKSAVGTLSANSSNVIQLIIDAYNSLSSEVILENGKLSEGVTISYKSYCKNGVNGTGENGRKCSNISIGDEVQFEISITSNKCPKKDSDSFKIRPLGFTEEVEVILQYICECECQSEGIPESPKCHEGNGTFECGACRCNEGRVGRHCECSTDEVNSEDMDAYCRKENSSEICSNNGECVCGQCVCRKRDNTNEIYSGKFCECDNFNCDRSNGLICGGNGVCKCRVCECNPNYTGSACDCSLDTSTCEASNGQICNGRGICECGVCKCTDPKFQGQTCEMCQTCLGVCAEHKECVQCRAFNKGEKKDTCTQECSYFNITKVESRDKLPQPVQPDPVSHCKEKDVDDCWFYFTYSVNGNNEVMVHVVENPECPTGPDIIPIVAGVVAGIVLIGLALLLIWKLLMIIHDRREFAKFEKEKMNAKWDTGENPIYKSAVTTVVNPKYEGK

binding result [1]: binds
B1: Tissue extracted bovine chondroadherin (ligand, UniProt Q27972 25-361, looked up)
chain: CPQNCHCHSDLQHVICDKVGLQKIPKVSEKTKLLNLQRNNFPVLATNSFRAMPNLVSLHLQHCQIREVAAGAFRGLKQLIYLYLSHNDIRVLRAGAFDDLTELTYLYLDHNKVTELPRGLLSPLVNLFILQLNNNKIRELRSGAFQGAKDLRWLYLSENSLSSLQPGALDDVENLAKFYLDRNQLSSYPSAALSKLRVVEELKLSHNPLKSIPDNAFQSFGRYLETLWLDNTNLEKFSDGAFLGVTTLKHVHLENNRLHQLPSNFPFDSLETLTLTNNPWKCTCQLRGLRRWLEAKTSRPDATCASPAKFRGQHIRDTDAFRGCKFPTKRSKKAGRH

binding result [2]: binds
Binder: CQLRGLRRWLEAK (also called 12-mer peptide) [Synthetic peptide CQLRGLRRWLEAK (12-mer chondroadherin peptide plus an N-terminal cysteine)]
